System: HNF-4alpha (transfected expression vector)
Assay: cell_activity
Details: COS-7 cotransfection, no added fatty acids

one to three C3P copies enhancing TK promoter CAT reporter
activity (fold activation): 7
